Source: patent US20230002480A1

Key:
Test in all cases: cell-based or functional assay
[1] = biological target: HIV-1 Env of pseudovirus PVO.4 (HIV-1)
[2] = biological target: HIV-1 Env of pseudovirus ZM249M.PL1 (HIV-1)
[3] = biological target: HIV-1 Env of pseudovirus Q842.d12 (HIV-1)
[4] = biological target: HIV-1 Env of pseudovirus 211-9 (HIV-1)
[5] = biological target: HIV-1 Env of pseudovirus CNE8 (HIV-1)
[6] = biological target: HIV-1 Env of pseudovirus CNE19 (HIV-1)
[7] = biological target: HIV-1 Env of pseudovirus ZM109F.PB4 (HIV-1)
[8] = biological target: HIV-1 Env of pseudovirus Ce2010_F5 (HIV-1)
[9] = biological target: HIV-1 Env of pseudovirus CNE58 (HIV-1)
[10] = biological target: HIV-1 Env of pseudovirus QH0692.42 (HIV-1)
[11] = biological target: HIV-1 Env of pseudovirus X2088_c9 (HIV-1)
[12] = biological target: HIV-1 Env of pseudovirus C2101.c01 (HIV-1)
[13] = biological target: HIV-1 Env of pseudovirus 620345.c01 (HIV-1)
[14] = biological target: HIV-1 Env of pseudovirus HIV-16845-2.22 (HIV-1)
[15] = biological target: HIV-1 Env of pseudovirus Q259.d2.17 (HIV-1)
[16] = biological target: HIV-1 Env of pseudovirus CNE17 (HIV-1)
[17] = biological target: HIV-1 Env of pseudovirus WEAU_d15_410_787 (HIV-1)
[18] = biological target: HIV-1 Env of pseudovirus 1054_07_TC4_1499 (HIV-1)
[19] = biological target: HIV-1 Env of pseudovirus Q461.e2 (HIV-1)
[20] = biological target: HIV-1 Env of pseudovirus 928-28 (HIV-1)
[21] = biological target: HIV-1 Env of pseudovirus Ce0682_E4 (HIV-1)
[22] = biological target: HIV-1 Env of pseudovirus ZM247v1(Rev-) (HIV-1)
[23] = biological target: HIV-1 Env of pseudovirus Ce2060_G9 (HIV-1)
[24] = biological target: HIV-1 Env of pseudovirus Du156.12 (HIV-1)
[25] = biological target: HIV-1 Env of pseudovirus 6535.3 (HIV-1)
[26] = biological target: HIV-1 Env of pseudovirus Ce1172_H1 (HIV-1)
[27] = biological target: HIV-1 Env of pseudovirus BJOX028000.10.3 (HIV-1)
[28] = biological target: HIV-1 Env of pseudovirus 263-8 (HIV-1)
[29] = biological target: HIV-1 Env of pseudovirus Q769.d22 (HIV-1)
[30] = biological target: HIV-1 Env of pseudovirus Ce1086_B2 (HIV-1)

N49P7 (antibody)
neutralization IC50 [1]: 0.107 µg/mL
neutralization IC80 [1]: 0.365 µg/mL
neutralization MPI [1]: 100
neutralization IC50 [2]: 0.039 µg/mL
neutralization IC80 [2]: 0.134 µg/mL
neutralization MPI [2]: 100
neutralization IC50 [3]: 0.021 µg/mL
neutralization IC80 [3]: 0.06 µg/mL
neutralization MPI [3]: 100
neutralization IC50 [4]: 0.22 µg/mL
neutralization IC80 [4]: 0.767 µg/mL
neutralization MPI [4]: 100
neutralization IC50 [5]: 0.037 µg/mL
neutralization IC80 [5]: 0.125 µg/mL
neutralization MPI [5]: 100
neutralization IC50 [6]: 0.009 µg/mL
neutralization IC80 [6]: 0.041 µg/mL
neutralization MPI [6]: 100
neutralization IC50 [7]: 0.034 µg/mL
neutralization IC80 [7]: 0.153 µg/mL
neutralization MPI [7]: 100
neutralization IC50 [8]: 0.13 µg/mL
neutralization IC80 [8]: 0.547 µg/mL
neutralization MPI [8]: 100
neutralization IC50 [9]: 0.029 µg/mL
neutralization IC80 [9]: 0.067 µg/mL
neutralization MPI [9]: 100
neutralization IC50 [10]: 0.663 µg/mL
neutralization IC80 [10]: 2.41 µg/mL
neutralization MPI [10]: 100
neutralization IC50 [11]: 0.116 µg/mL
neutralization IC80 [11]: 0.338 µg/mL
neutralization MPI [11]: 100
neutralization IC50 [12]: 0.06 µg/mL
neutralization IC80 [12]: 0.34 µg/mL
neutralization MPI [12]: 100
neutralization IC50 [13]: 23.2 µg/mL
neutralization IC80 [13]: 47.9 µg/mL
neutralization MPI [13]: 82
neutralization IC50 [14]: 0.95 µg/mL
neutralization IC80 [14]: 3.94 µg/mL
neutralization MPI [14]: 100
neutralization IC50 [15]: 0.332 µg/mL
neutralization IC80 [15]: 2.47 µg/mL
neutralization MPI [15]: 98
neutralization IC50 [16]: 0.126 µg/mL
neutralization IC80 [16]: 0.46 µg/mL
neutralization MPI [16]: 100
neutralization IC50 [17]: 0.045 µg/mL
neutralization IC80 [17]: 0.117 µg/mL
neutralization MPI [17]: 100
neutralization IC50 [18]: 0.494 µg/mL
neutralization IC80 [18]: 2.31 µg/mL
neutralization MPI [18]: 100
neutralization IC50 [19]: 0.261 µg/mL
neutralization IC80 [19]: 0.922 µg/mL
neutralization MPI [19]: 100
neutralization IC50 [20]: 0.167 µg/mL
neutralization IC80 [20]: 0.579 µg/mL
neutralization MPI [20]: 100
neutralization IC50 [21]: 0.041 µg/mL
neutralization IC80 [21]: 0.131 µg/mL
neutralization MPI [21]: 100
neutralization IC50 [22]: 0.062 µg/mL
neutralization IC80 [22]: 0.214 µg/mL
neutralization MPI [22]: 100
neutralization IC50 [23]: 0.661 µg/mL
neutralization IC80 [23]: 2.55 µg/mL
neutralization MPI [23]: 100
neutralization IC50 [24]: 0.032 µg/mL
neutralization IC80 [24]: 0.086 µg/mL
neutralization MPI [24]: 100
neutralization IC50 [25]: 0.186 µg/mL
neutralization IC80 [25]: 0.598 µg/mL
neutralization MPI [25]: 100
neutralization IC50 [26]: 8.5 µg/mL
neutralization IC80 [26]: 37.5 µg/mL
neutralization MPI [26]: 92
neutralization IC50 [27]: 0.02 µg/mL
neutralization IC80 [27]: 0.123 µg/mL
neutralization MPI [27]: 100
neutralization IC50 [28]: 0.056 µg/mL
neutralization IC80 [28]: 0.201 µg/mL
neutralization MPI [28]: 100
neutralization IC50 [29]: 0.025 µg/mL
neutralization IC80 [29]: 0.111 µg/mL
neutralization MPI [29]: 100
neutralization IC50 [30]: 0.089 µg/mL
neutralization IC80 [30]: 0.568 µg/mL
neutralization MPI [30]: 100

N49P7.1 (antibody)
neutralization IC50 [1]: 0.124 µg/mL
neutralization IC80 [1]: 0.421 µg/mL
neutralization MPI [1]: 100
neutralization IC50 [2]: 0.071 µg/mL
neutralization IC80 [2]: 0.239 µg/mL
neutralization MPI [2]: 100
neutralization IC50 [3]: 0.028 µg/mL
neutralization IC80 [3]: 0.08 µg/mL
neutralization MPI [3]: 100
neutralization IC50 [4]: 0.34 µg/mL
neutralization IC80 [4]: 1.17 µg/mL
neutralization MPI [4]: 100
neutralization IC50 [5]: 0.048 µg/mL
neutralization IC80 [5]: 0.167 µg/mL
neutralization MPI [5]: 100
neutralization IC50 [6]: 0.027 µg/mL
neutralization IC80 [6]: 0.128 µg/mL
neutralization MPI [6]: 100
neutralization IC50 [7]: 0.055 µg/mL
neutralization IC80 [7]: 0.199 µg/mL
neutralization MPI [7]: 100
neutralization IC50 [8]: 0.055 µg/mL
neutralization IC80 [8]: 0.208 µg/mL
neutralization MPI [8]: 100
neutralization IC50 [9]: 0.049 µg/mL
neutralization IC80 [9]: 0.107 µg/mL
neutralization MPI [9]: 100
neutralization IC50 [10]: 0.764 µg/mL
neutralization IC80 [10]: 2.71 µg/mL
neutralization MPI [10]: 100
neutralization IC50 [11]: 0.199 µg/mL
neutralization IC80 [11]: 0.726 µg/mL
neutralization MPI [11]: 100
neutralization IC50 [12]: 0.076 µg/mL
neutralization IC80 [12]: 0.425 µg/mL
neutralization MPI [12]: 100
neutralization IC50 [13]: > 50 µg/mL
neutralization IC80 [13]: > 50 µg/mL
neutralization MPI [13]: 47
neutralization IC50 [14]: 1.07 µg/mL
neutralization IC80 [14]: 5.4 µg/mL
neutralization MPI [14]: 100
neutralization IC50 [15]: 0.505 µg/mL
neutralization IC80 [15]: 4.23 µg/mL
neutralization MPI [15]: 97
neutralization IC50 [16]: 0.254 µg/mL
neutralization IC80 [16]: 0.86 µg/mL
neutralization MPI [16]: 100
neutralization IC50 [17]: 0.058 µg/mL
neutralization IC80 [17]: 0.142 µg/mL
neutralization MPI [17]: 100
neutralization IC50 [18]: 0.627 µg/mL
neutralization IC80 [18]: 2.98 µg/mL
neutralization MPI [18]: 100
neutralization IC50 [19]: 0.329 µg/mL
neutralization IC80 [19]: 1.14 µg/mL
neutralization MPI [19]: 100
neutralization IC50 [20]: 0.23 µg/mL
neutralization IC80 [20]: 0.775 µg/mL
neutralization MPI [20]: 100
neutralization IC50 [21]: 0.026 µg/mL
neutralization IC80 [21]: 0.099 µg/mL
neutralization MPI [21]: 100
neutralization IC50 [22]: 0.038 µg/mL
neutralization IC80 [22]: 0.176 µg/mL
neutralization MPI [22]: 100
neutralization IC50 [23]: 0.473 µg/mL
neutralization IC80 [23]: 2.41 µg/mL
neutralization MPI [23]: 100
neutralization IC50 [24]: 0.045 µg/mL
neutralization IC80 [24]: 0.131 µg/mL
neutralization MPI [24]: 100
neutralization IC50 [25]: 0.224 µg/mL
neutralization IC80 [25]: 0.715 µg/mL
neutralization MPI [25]: 100
neutralization IC50 [26]: 17.1 µg/mL
neutralization IC80 [26]: > 50 µg/mL
neutralization MPI [26]: 78
neutralization IC50 [27]: 0.031 µg/mL
neutralization IC80 [27]: 0.29 µg/mL
neutralization MPI [27]: 100
neutralization IC50 [28]: 0.104 µg/mL
neutralization IC80 [28]: 0.392 µg/mL
neutralization MPI [28]: 100
neutralization IC50 [29]: 0.044 µg/mL
neutralization IC80 [29]: 0.163 µg/mL
neutralization MPI [29]: 100
neutralization IC50 [30]: 0.121 µg/mL
neutralization IC80 [30]: 0.742 µg/mL
neutralization MPI [30]: 99
